Test results published in patent publication US20220112295A1 (Novo Nordisk, published 2022).
Changes are numbered by the printed parent chain.

T1: recombinant human CD30L isoleucine zipper (huCD30L LZ) (human, UniProt P32971 63-234)
T1 sequence: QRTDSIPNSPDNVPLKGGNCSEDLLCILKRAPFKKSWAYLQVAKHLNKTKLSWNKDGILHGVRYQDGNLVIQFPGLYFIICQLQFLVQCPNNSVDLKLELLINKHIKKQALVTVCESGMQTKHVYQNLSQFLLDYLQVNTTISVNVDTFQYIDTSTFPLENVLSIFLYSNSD

T2: cyno CD30L LZ (cynomolgus monkey, UniProt A0A7N9CVX7 63-234)
T2 sequence: T1 sequence with V13I, K16R, I142V, I165V

T3: native human CD30L expressed on Ramos cells (human, UniProt P32971 1-234)
T3 sequence: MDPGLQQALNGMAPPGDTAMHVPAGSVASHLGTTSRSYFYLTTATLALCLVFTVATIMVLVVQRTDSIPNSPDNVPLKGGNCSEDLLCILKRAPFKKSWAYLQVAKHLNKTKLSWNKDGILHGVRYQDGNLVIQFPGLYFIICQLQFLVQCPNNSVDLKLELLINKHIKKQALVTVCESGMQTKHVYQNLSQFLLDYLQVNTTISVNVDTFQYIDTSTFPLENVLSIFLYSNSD

T4: FLAG-hCD30L-EC (N153Q) treated with PNGaseF (human)
T4 construct: also called FLAG-hCD30L-EC + PNGaseF
T4 chain: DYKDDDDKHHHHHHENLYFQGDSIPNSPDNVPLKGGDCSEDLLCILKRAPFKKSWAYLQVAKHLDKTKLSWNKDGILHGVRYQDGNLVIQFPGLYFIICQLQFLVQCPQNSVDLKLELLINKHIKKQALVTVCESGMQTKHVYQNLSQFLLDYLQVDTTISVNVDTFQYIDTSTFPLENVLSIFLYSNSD

B1: Antibody A1 (antibody, V domains shown)
VH: QVQLQESGPGLVKPSETLSLTCTVSGGSISSYIWSWIRQPAGKGLEWIGRIYASGNTNYNPSLKSRVTISVDTSKNQFSLKLSSMTAADTAVYYCARDYRVAGTYYYYYGLDVWGQGTTVTVSS
VL: QSALTQPASVSGSPGQSITISCTGTSSDVGVYDYVSWYQQHPGKAPKLMIYEVSNRPSGVSNRFSGSKSGNTASLTISGLQTEDEADYYCSSYTSRSTWVFGGGTKLTVL
notes: also called mAb A1; Antibody A1 IgG2
B2: Antibody A1 IgG1 (antibody, V domains shown)
VH: B1 VH
VL: B1 VL

Experiments:
[1] = molecular target: T1, recombinant human CD30L isoleucine …; assay: cell-based or functional assay
[2] = molecular target: T2, cyno CD30L LZ; assay: cell-based or functional assay
[3] = molecular target: T3, native human CD30L expressed on Ramos …; assay: cell-based or functional assay
[4] = molecular target: T1, recombinant human CD30L isoleucine …; assay: blocking of human CD30L LZ binding to K299 cells (CD30)
[5] = molecular target: T4, FLAG-hCD30L-EC (N153Q) treated with …; assay: HX-MS, 6 uM hCD30L with 6.6 uM mAb

| Binder | IC50, inhibition of IL-8 release (K299 single cell assay with huCD30L LZ) [1] | IC50, inhibition of IL-8 release (K299 single cell assay with cyno CD30L LZ) [2] | IC50, inhibition of IL-8 release (K299/Ramos dual cell assay) [3] | IC50 [4] | binding result [5] |
| --- | --- | --- | --- | --- | --- |
| B1 | 2.7 nM | 2.4 nM | 0.033 nM | 1.4 nM | binds |
| B2 | – | 1.5 nM | 0.032 nM | – | – |
